From PMC11915804, “In situ structures of the contractile nanomachine myophage Mu in both its extended and contracted states” (Journal of Virology, 2025)

T1: hub protein gp44 (phage Mu, UniProt P08558 1-379)
T1 construct: baseplate hub protein gp44 of myophage Mu, as it stands in the virion; Trimer; Model deposited here; source: phage Mu virions grown on E. coli (ATCC 23724), purified (PEG 8000/NaCl precipitation, CsCl gradient)
T1 sequence (looked up): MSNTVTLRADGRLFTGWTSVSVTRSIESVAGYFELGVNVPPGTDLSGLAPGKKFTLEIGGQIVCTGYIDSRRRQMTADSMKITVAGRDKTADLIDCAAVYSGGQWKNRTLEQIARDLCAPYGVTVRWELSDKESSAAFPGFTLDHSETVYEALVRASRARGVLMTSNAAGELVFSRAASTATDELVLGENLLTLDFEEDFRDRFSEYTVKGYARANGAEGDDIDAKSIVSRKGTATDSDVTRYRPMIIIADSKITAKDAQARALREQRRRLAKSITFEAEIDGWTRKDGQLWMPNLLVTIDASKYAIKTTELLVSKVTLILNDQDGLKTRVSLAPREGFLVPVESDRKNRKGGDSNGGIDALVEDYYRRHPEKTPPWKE

T2: tail sheath protein gp39 (phage Mu, UniProt P79678 1-495)
T2 construct: tail sheath protein gp39 of myophage Mu, as it stands in the virion; Hexameric rings, 30 of them stacked in the tail; Model deposited here; source: phage Mu virions grown on E. coli (ATCC 23724), purified (PEG 8000/NaCl precipitation, CsCl gradient)
T2 sequence (looked up): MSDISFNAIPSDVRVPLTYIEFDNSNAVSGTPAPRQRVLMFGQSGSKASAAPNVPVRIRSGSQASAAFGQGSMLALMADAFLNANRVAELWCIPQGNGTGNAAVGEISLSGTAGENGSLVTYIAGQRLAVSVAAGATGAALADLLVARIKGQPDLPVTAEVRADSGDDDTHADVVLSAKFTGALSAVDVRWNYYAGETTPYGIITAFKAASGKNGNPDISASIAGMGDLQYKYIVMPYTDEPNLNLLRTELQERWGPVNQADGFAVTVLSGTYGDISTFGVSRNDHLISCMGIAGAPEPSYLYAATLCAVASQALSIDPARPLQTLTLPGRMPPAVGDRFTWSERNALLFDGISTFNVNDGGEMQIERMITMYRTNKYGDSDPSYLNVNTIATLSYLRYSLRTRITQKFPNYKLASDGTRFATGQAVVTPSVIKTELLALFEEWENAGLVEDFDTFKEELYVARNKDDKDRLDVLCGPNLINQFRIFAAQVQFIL

T3: tube initiator protein gp43 (phage Mu, UniProt P08557 1-495)
T3 construct: tube initiator protein gp43 (N protein, DNA circularization protein) of myophage Mu, as it stands in the virion; Hexamer; Model deposited here; also called N protein; DNA circularization protein; source: phage Mu virions grown on E. coli (ATCC 23724), purified (PEG 8000/NaCl precipitation, CsCl gradient)
T3 sequence (looked up): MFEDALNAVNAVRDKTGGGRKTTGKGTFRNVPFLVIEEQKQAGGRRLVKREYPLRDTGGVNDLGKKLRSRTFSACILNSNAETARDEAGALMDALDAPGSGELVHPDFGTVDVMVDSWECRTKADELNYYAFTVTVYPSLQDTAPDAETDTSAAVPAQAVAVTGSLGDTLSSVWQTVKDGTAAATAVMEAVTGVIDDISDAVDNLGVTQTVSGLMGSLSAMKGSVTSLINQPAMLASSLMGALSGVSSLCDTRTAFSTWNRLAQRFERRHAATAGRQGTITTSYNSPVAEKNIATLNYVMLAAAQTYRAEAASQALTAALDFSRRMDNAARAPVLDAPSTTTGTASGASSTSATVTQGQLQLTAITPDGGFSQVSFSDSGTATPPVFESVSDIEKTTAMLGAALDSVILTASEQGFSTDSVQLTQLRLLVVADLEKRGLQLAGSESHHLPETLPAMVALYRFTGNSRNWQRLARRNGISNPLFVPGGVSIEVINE

T4: baseplate wedge protein 2 (BW2) gp47 (phage Mu, UniProt Q9T1V2 1-360)
T4 construct: baseplate wedge protein 2 gp47 of myophage Mu, as it stands in the virion; Two conformers (BW2-i, BW2-o) in each of the six wedges; Model deposited here; also called BW2-i; BW2-o; source: phage Mu virions grown on E. coli (ATCC 23724), purified (PEG 8000/NaCl precipitation, CsCl gradient)
T4 sequence (looked up): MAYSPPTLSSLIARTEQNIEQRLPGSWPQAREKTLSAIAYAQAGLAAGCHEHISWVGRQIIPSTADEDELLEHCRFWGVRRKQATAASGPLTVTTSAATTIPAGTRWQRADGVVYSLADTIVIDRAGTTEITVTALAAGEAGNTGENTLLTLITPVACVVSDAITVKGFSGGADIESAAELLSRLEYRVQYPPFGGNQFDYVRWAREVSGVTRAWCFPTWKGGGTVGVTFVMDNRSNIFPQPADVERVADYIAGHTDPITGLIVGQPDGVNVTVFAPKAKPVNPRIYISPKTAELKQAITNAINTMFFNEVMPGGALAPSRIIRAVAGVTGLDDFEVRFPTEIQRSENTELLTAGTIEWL

T5: G(+) type fiber protein gp49 (phage Mu, UniProt Q9T1V0 1-504)
T5 construct: G(+) type tail fiber protein gp49 of myophage Mu, as it stands in the virion; only the N-terminus was modelled; Trimer; six fibers in the baseplate; Model deposited here; source: phage Mu virions grown on E. coli (ATCC 23724), purified (PEG 8000/NaCl precipitation, CsCl gradient)
T5 sequence (looked up): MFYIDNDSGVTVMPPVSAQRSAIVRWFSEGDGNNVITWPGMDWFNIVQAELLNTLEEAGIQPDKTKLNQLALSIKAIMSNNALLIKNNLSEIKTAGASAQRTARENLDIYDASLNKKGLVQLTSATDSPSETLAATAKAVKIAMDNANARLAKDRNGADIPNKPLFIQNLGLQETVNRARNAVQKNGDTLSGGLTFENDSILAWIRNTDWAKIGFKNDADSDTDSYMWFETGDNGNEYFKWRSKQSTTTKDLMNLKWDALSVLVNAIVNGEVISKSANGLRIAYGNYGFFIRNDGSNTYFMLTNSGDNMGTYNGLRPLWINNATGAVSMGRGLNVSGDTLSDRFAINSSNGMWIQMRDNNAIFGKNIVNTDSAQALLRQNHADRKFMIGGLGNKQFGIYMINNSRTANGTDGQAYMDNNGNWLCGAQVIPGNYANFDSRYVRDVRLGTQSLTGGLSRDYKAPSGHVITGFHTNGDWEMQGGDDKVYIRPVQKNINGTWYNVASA

B1: spike protein gp45 (natural protein, phage Mu, UniProt Q9T1V4 1-197, looked up)
chain: MERVNDSALNRLLTPLMRRVRLMLARAVVNVINDGRKVQNLQVGLLDDEESDEVERLQNYGHFSVPLPGAEALIACVGAQRDQGIAVVVEDRRYRPTNLEPGDAGIYHHEGHRIRLTKDGRCIITCKTVEVYADESMTVDTPRTTFTGDVEIQKGLGVKGKSQFDSNITAPDAIINGKSTDKHIHRGDSGGTTGPMQ
notes: baseplate spike protein gp45 of myophage Mu, as it stands in the virion; Trimer; Model deposited here; source: phage Mu virions grown on E. coli (ATCC 23724), purified (PEG 8000/NaCl precipitation, CsCl gradient)
B2: baseplate wedge protein 1 (BW1) gp46 (natural protein, phage Mu, UniProt Q9T1V3 1-145, looked up)
chain: MTDLAIIWTNGRGDIAQDGIDMLTDDSLTTDVTISLFTDRRALDSDTLPDGSDDRRGWWGDSYRDRPIGSRLWLLSREKATPDTLERARGYAEEALEWLKTAGRVSAINVRAEQLHQGWLYLYIALTLPDGSVIPYEFKAAFNGV
notes: baseplate wedge protein 1 gp46 of myophage Mu, as it stands in the virion; One copy in each of the six wedges; Model deposited here; source: phage Mu virions grown on E. coli (ATCC 23724), purified (PEG 8000/NaCl precipitation, CsCl gradient)
B3: baseplate wedge protein 3 (BW3) gp48 (natural protein, phage Mu, UniProt Q9T1V1 1-180, looked up)
chain: MAVTPWQTAFLQLLPSGLAWNKSPDSKLSALAQAISDVIATAADDARQMLRERFPSTSRWYLGEWESFLGLPDCTSENGTLSERQRAAANKMRMTGNLSRRFYEWLAAQYGFTVRLTDSTEGQWVTQVNIYGIKNYRNATVLDNVLTPLRVYESGALECLLEKYKPAHQIYKFVYHDGDN
notes: baseplate wedge protein 3 gp48 of myophage Mu, as it stands in the virion; One copy in each of the six wedges; Model deposited here; source: phage Mu virions grown on E. coli (ATCC 23724), purified (PEG 8000/NaCl precipitation, CsCl gradient)

Legend:
Experiment in all cases: cryo-EM structure; purified phage Mu virions in the extended state (native phage) in phage buffer (10 mM MgCl2, 5 mM NaCl, 10 mM Tris-HCl, pH 7.4); icosahedral, symmetry-mismatch and local reconstruction; 3.2 Å (3-fold capsid), 3.4 Å (portal-adaptor), 3.5 Å (terminator-tail), 3.3 Å (baseplate)
hub protein gp44 = biological target: T1, hub protein gp44; conditions: both partners purified
[1] = biological target: the molecule itself
tail sheath protein gp39 = biological target: T2, tail sheath protein gp39; conditions: both partners purified
[2] = biological target: T3, tube initiator protein gp43; conditions: both partners purified
[3] = biological target: T4, baseplate wedge protein 2 (BW2) gp47; conditions: both partners purified
[4] = biological target: B3; conditions: both partners purified
[5] = biological target: T5, G(+) type fiber protein gp49; conditions: both partners purified

Binder | binding result (hub protein gp44) | stoichiometry N [1] | binding result (tail sheath protein gp39) | binding result [2] | binding result [3] | binding result [4] | binding result [5]
B1 | binds | 3 |  |  |  |  | 
B2 |  |  | binds | binds | binds | binds | 
B3 |  |  |  | binds | binds |  | binds
